Like-named read-outs stand apart in the source and are kept apart here. Bridges are numbered along the chain shown (N, C = ends).

Holding throughout (test): FCPIA (flow cytometry protein interaction assay, Luminex beads); dose curves of 5nd on RGS4 cysteine mutants (5 nM, or 20 nM for the mutants with no Cys in the domain or the C-terminus) and labeled Gαo; curves constrained to 100% and 0%
Assay [1] concerns the target MBP-RGS4Δ51N with no Cys in the RGS domain (UniProt P49799).
In assay [2] the target is MBP-RGS4Δ51N -7C mutant (all 7 cysteines removed) (UniProt P49799).
In assay [3] the target is MBP-RGS4Δ51N with no Cys in the C-terminus (UniProt P49799).
Assay [4] addresses MBP-RGS4Δ51N A148C in the -7C (UniProt P49799).
Assay [5] concerns the target MBP-RGS4Δ51N A95C in the -7C (UniProt P49799).
Assay [6] concerns the target MBP-RGS4Δ51N A132C in the -7C (UniProt P49799).
The target of assay [7] is MBP-RGS4Δ51N A71C in the -7C (UniProt P49799).
For assay [8], the target named is MBP-RGS4Δ51N with no Cys in the C-terminus (UniProt P49799). This is another data set of the same source.

B1: Peptide 5nd (Tyr-Trp-c[Cys-Lys-Gly-Leu-Cys]-Lys-NH2, S-S) (peptide)
peptide: H-YWCKGLCK-NH2
modifications: disulfide 3-7
SMILES: CC(C)C[C@@H]1NC(=O)CNC(=O)[C@H](CCCCN)NC(=O)[C@@H](NC(=O)[C@H](Cc2c[nH]c3ccccc23)NC(=O)[C@@H](N)Cc2ccc(O)cc2)CSSC[C@@H](C(=O)N[C@@H](CCCCN)C(N)=O)NC1=O
For the molecule B1, the logIC50 in assay [1] was -3.8 log M; in assay [2], -3.24 log M; in assay [3], -4.39 log M; in assay [4], -3.51 log M; in assay [5], -3.58 log M; in assay [6] it was -3.41 log M. In addition, the logIC50 in assay [7] was -3.2 log M; in assay [8], -4.5 log M.

Values taken from publication PMC2700083, “A covalent peptide inhibitor of RGS4 identified in a focused one-bead, one compound library screen” (BMC Pharmacology, 2009).
